Substrate: NC(CCC(=O)NC(CNCC(=O)O)CSCCN1C(=O)C=CC1=O)C(=O)O
Experiment: TP_TRANSPORTER: uptake in membrane vesicles from MRP1-expressing Sf9 cells
Type: functional, cell membranes, Membrane vesicle

B1: Multidrug resistance-associated protein 1 (Homo sapiens) (protein)
chain: MALRGFCSADGSDPLWDWNVTWNTSNPDFTKCFQNTVLVWVPCFYLWACFPFYFLYLSRHDRGYIQMTPLNKTKTALGFLLWIVCWADLFYSFWERSRGIFLAPVFLVSPTLLGITMLLATFLIQLERRKGVQSSGIMLTFWLVALVCALAILRSKIMTALKEDAQVDLFRDITFYVYFSLLLIQLVLSCFSDRSPLFSETIHDPNPCPESSASFLSRITFWWITGLIVRGYRQPLEGSDLWSLNKEDTSEQVVPVLVKNWKKECAKTRKQPVKVVYSSKDPAQPKESSKVDANEEVEALIVKSPQKEWNPSLFKVLYKTFGPYFLMSFFFKAIHDLMMFSGPQILKLLIKFVNDTKAPDWQGYFYTVLLFVTACLQTLVLHQYFHICFVSGMRIKTAVIGAVYRKALVITNSARKSSTVGEIVNLMSVDAQRFMDLATYINMIWSAPLQVILALYLLWLNLGPSVLAGVAVMVLMVPVNAVMAMKTKTYQVAHMKSKDNRIKLMNEILNGIKVLKLYAWELAFKDKVLAIRQEELKVLKKSAYLSAVGTFTWVCTPFLVALCTFAVYVTIDENNILDAQTAFVSLALFNILRFPLNILPMVISSIVQASVSLKRLRIFLSHEELEPDSIERRPVKDGGGTNSITVRNATFTWARSDPPTLNGITFSIPEGALVAVVGQVGCGKSSLLSALLAEMDKVEGHVAIKGSVAYVPQQAWIQNDSLRENILFGCQLEEPYYRSVIQACALLPDLEILPSGDRTEIGEKGVNLSGGQKQRVSLARAVYSNADIYLFDDPLSAVDAHVGKHIFENVIGPKGMLKNKTRILVTHSMSYLPQVDVIIVMSGGKISEMGSYQELLARDGAFAEFLRTYASTEQEQDAEENGVTGVSGPGKEAKQMENGMLVTDSAGKQLQRQLSSSSSYSGDISRHHNSTAELQKAEAKKEETWKLMEADKAQTGQVKLSVYWDYMKAIGLFISFLSIFLFMCNHVSALASNYWLSLWTDDPIVNGTQEHTKVRLSVYGALGISQGIAVFGYSMAVSIGGILASRCLHVDLLHSILRSPMSFFERTPSGNLVNRFSKELDTVDSMIPEVIKMFMGSLFNVIGACIVILLATPIAAIIIPPLGLIYFFVQRFYVASSRQLKRLESVSRSPVYSHFNETLLGVSVIRAFEEQERFIHQSDLKVDENQKAYYPSIVANRWLAVRLECVGNCIVLFAALFAVISRHSLSAGLVGLSVSYSLQVTTYLNWLVRMSSEMETNIVAVERLKEYSETEKEAPWQIQETAPPSSWPQVGRVEFRNYCLRYREDLDFVLRHINVTINGGEKVGIVGRTGAGKSSLTLGLFRINESAEGEIIIDGINIAKIGLHDLRFKITIIPQDPVLFSGSLRMNLDPFSQYSDEEVWTSLELAHLKDFVSALPDKLDHECAEGGENLSVGQRQLVCLARALLRKTKILVLDEATAAVDLETDDLIQSTIRTQFEDCTVLTIAHRLNTIMDYTRVIVLDKGEIQEYGAPSDLLQQRGLFYSMAKDAGLV
Km: 155 µM

Reference: ChEMBL document CHEMBL2073913, “Functional multidrug resistance protein (MRP1) lacking the N-terminal transmembrane domain” (J Biol Chem, 1998)
